Laboratory results reported in patent publication US20100254988A1.

Legend:
human c-Met ECD (human) = human c-Met ECD (human) (UniProt P08581); assay: SPR (Biacore T100), antibody captured by anti-Fc gamma antibody, c-Met ECD as analyte, 25 C
[1] = target: c-Met receptor on OVCAR-8 cells (human) (UniProt P08581); assay: cell-based or functional assay

Kd (human c-Met ECD (human)): 8.2 nM
% Internalization of c-Met after 1 hour on OVCAR-8 cells (=100-% antibody on cell surface) [1]: -7%
% c-Met receptor on OVCAR-8 cell surface measured after 1 hour [1]: 107%
Substance: BsAB02, trivalent bispecific <ErbB-2-c-Met> antibody (full length trastuzumab with one single chain Fab fragment of c-Met 5D5 (humanized) at the C-terminus of the knob heavy chain) (bispecific antibody)
